Measured values from the supplement of paper PMC7877785.
± gives the uncertainty stated by the source.

Experiment: self-splicing fitness, log relative to wild type (ln ratio); higher = more splicing; Tetrahymena group I intron in knt gene, E. coli kanamycin selection, DiMSum; sequences stand for … in CUCUCU…GGAGGGAAAAGUUAUCAGGCAUGCACCUGGUAGCUAGUCUUUAAACCAAUAGAUUGCAUCGGUUUAAAAGGCAAGACCGUCAAAUUGCGGGAAAGGGGUCAACAGCCGUUCAGUACCAAGUCUCAGGGGAAACUUUGAGAUGGCCUUGCAAAGGGUAUGGUAAUAAGCUGACGGACAUGGUCCUAACCACGCAGCCAAGUCCUAAGUCAACAGAUCUUCUGUUGAUAUGGAUGCAGUUCACAGACUAAAUGUCGGUCGGGGAAGAUGUAUUCUUCUCAUAAGAUAUAGUCGGACCUCUCCUUAAUGGGAGCUAGCGGAUGAAGUGAUGCAACACUGGAGCCGCUGGGAACUAAUUUGUAUGCGAAAGUAUAUUGAUUAGUUUUGGAGUACUCGUGGUCG
Summary of the method: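 A randomised library covering all eight P1ex-region intron nucleotides was built with the intron in the knt kanamycin-resistance gene on pET-22b(+) and held in E. coli BL21(DE3). Cells were grown overnight at 37°C or 30°C on LB agar, with or without 25 μg/mL kanamycin, plus 100 μg/mL carbenicillin, 50 μM IPTG and 0.2% rhamnose, and pooled colonies were amplicon-sequenced on an Illumina HiSeq 2500. DiMSum fitness is the error-weighted combination of wild-type-normalised replicate fold changes, kanamycin versus none.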

Row | Sequence | self-splicing fitness (ln) (30 °C) | self-splicing fitness (ln) (37 °C)
1 | UUCCAGCAAUAUUACGAACG | -2.22 ± 0.16 | -0.164 ± 0.15
2 | CUCCAGCAAUAUUACGGCUC | -2.78 ± 0.23 | -1.57 ± 0.17
3 | UGCCAGCAAUAUUACGCGGA | -2.24 ± 0.1 | -1.32 ± 0.094
4 | UCGCAGCAAUAUUACGCCGU | -3.48 ± 0.26 | -2.99 ± 0.4
5 | CCACAGCAAUAUUACGUCUC | -3.01 ± 0.17 | -2.66 ± 0.16
6 | AGAAAGCAAUAUUACGAAAA | -1.74 ± 0.13 | -0.577 ± 0.15
7 | UAUGAGCAAUAUUACGGUGU | -3.54 ± 0.23 | -2.63 ± 0.2
8 | AGGUAGCAAUAUUACGCGGA | -2.062 ± 0.019 | -1.09 ± 0.033
9 | AAACAGCAAUAUUACGUCCA | -1.19 ± 0.065 | -0.777 ± 0.073
10 | GUAGAGCAAUAUUACGCCCG | -2.15 ± 0.3 | -1.85 ± 0.3
11 | CAGCAGCAAUAUUACGCGCU | -3.39 ± 0.21 | -2.45 ± 0.16
12 | GUCAAGCAAUAUUACGUUCG | -2.63 ± 0.12 | -2.1 ± 0.15
13 | UAAUAGCAAUAUUACGCGUA | -1.85 ± 0.14 | -0.713 ± 0.12
14 | AUGUAGCAAUAUUACGUGCA | -0.921 ± 0.13 | -1.01 ± 0.12
15 | GUCUAGCAAUAUUACGAGUG | -1.99 ± 0.1 | -1.05 ± 0.1
16 | CAUGAGCAAUAUUACGGUCG | -0.34 ± 0.091 | 0.0674 ± 0.1
17 | AGCAAGCAAUAUUACGUAUG | -3.61 ± 0.14 | -3.29 ± 0.18
18 | UUUAAGCAAUAUUACGAUCU | -1.05 ± 0.1 | -0.724 ± 0.13
19 | UGGAAGCAAUAUUACGACGU | -1.62 ± 0.15 | -0.761 ± 0.2
20 | GAGCAGCAAUAUUACGUUGC | -4.45 ± 0.34 | -3.41 ± 0.23
21 | ACGGAGCAAUAUUACGACGU | -2.27 ± 0.17 | -1.56 ± 0.23
22 | UGCAAGCAAUAUUACGGGUG | -0.825 ± 0.051 | -0.33 ± 0.065
23 | GCGCAGCAAUAUUACGGAUG | -1.72 ± 0.1 | -1.39 ± 0.12
24 | AAUUAGCAAUAUUACGAACG | -0.548 ± 0.13 | -0.153 ± 0.19

Row | Sequence | self-splicing fitness (ln) (30 °C) | self-splicing fitness (ln) (37 °C)
25 | UGAGAGCAAUAUUACGUCGG | -2.21 ± 0.2 | -1.77 ± 0.31
26 | GGGGAGCAAUAUUACGACGG | -3.76 ± 0.46 | 
27 | UACCAGCAAUAUUACGCACG | 0.061 ± 0.066 | -0.903 ± 0.066
28 | AAUGAGCAAUAUUACGUAGA | -2.46 ± 0.24 | -2.56 ± 0.27
29 | UUCAAGCAAUAUUACGGCCC | -1.49 ± 0.17 | -0.618 ± 0.18
30 | CGUGAGCAAUAUUACGCUCG | -2.69 ± 0.26 | -2.64 ± 0.24
31 | AUAGAGCAAUAUUACGAUCG | -1.08 ± 0.14 | -1.4 ± 0.27
32 | AAACAGCAAUAUUACGUCUA | -1.21 ± 0.065 | -0.311 ± 0.07
33 | UUAAAGCAAUAUUACGUUCC | -2.36 ± 0.22 | -0.947 ± 0.21
34 | CGACAGCAAUAUUACGGUGC | -3.61 ± 0.26 | -2.53 ± 0.16
35 | GGCGAGCAAUAUUACGGAAC | -1.91 ± 0.19 | -1.68 ± 0.26
36 | CUUGAGCAAUAUUACGAUAU |  | -1.76 ± 0.39
37 | GUCUAGCAAUAUUACGUGUA | -0.862 ± 0.084 | -0.516 ± 0.086
38 | CGUCAGCAAUAUUACGCGUG | -0.575 ± 0.054 | -0.39 ± 0.066
39 | CGAUAGCAAUAUUACGUCGA | -3.77 ± 0.25 | -1.15 ± 0.12
40 | CCACAGCAAUAUUACGGGCC | -4.14 ± 0.25 | -2.5 ± 0.18
41 | CGCUAGCAAUAUUACGUGAC |  | -2.52 ± 0.3
42 | CGUUAGCAAUAUUACGAAAG | -1.11 ± 0.13 | -0.689 ± 0.18
43 | CAGUAGCAAUAUUACGGCCA | -1.17 ± 0.16 | -1.11 ± 0.21
44 | AACGAGCAAUAUUACGCCAU | -2.91 ± 0.27 | -1.52 ± 0.27
45 | UAUGAGCAAUAUUACGUUAU | -3.87 ± 0.33 | -2.46 ± 0.19
46 | UUGUAGCAAUAUUACGUGAU | -3.14 ± 0.17 | -1.01 ± 0.15
47 | UCUGAGCAAUAUUACGGCUG | -3.48 ± 0.2 | -2.22 ± 0.21
48 | AAGCAGCAAUAUUACGUGGA | -3.63 ± 0.21 | -1.44 ± 0.11
